Article PMC5485733, “An Amyloidogenic Sequence at the N-Terminus of the Androgen Receptor Impacts Polyglutamine Aggregation” (Biomolecules, 2017)

Molecular target: the molecule itself
Assay: SEC + other: mass spectrometry; HiLoad 16/60 Superdex 75, 20 mM sodium phosphate pH 6.5, 150 mM NaCl, with or without 2 mM DTT; dimer fraction decreased with DTT; fractions identified by mass spectrometry; monomer to covalent dimer

B1: His-SUMO-peptide fusion protein (SUMO_SAPKELCKAVSVSM) (domain or fragment, human)
chain: SAPKELCKAVSVSM
notes: three amino acids Ser-Ala-Pro linker inserted between the SUMO tag and the peptide; The peptide is the C-terminus of the chain (stop codon after it); The dimer is covalent; Printed mass 15,819 (printed as kDa); source: E. coli Rosetta (DE3), purified (Ni-NTA agarose, SEC); not shown: His, N-terminal, kept; SUMO, N-terminal, kept
  stoichiometry N: 2
